Changes are numbered by the printed parent chain. Numbers in names are those of the source. One block for each binder: values may come before it.
Experiments:
[1] = biological target: feline FcRn complex (FcRn-α subunit and β-microglobulin) (feline); test: SPR (Biacore), FcRn on SA chip, pH 6
[2] = biological target: feline FcRn complex (FcRn-α subunit and β-microglobulin) (feline); test: SPR (Biacore), FcRn on SA chip, pH 7.4

Kd [1]: 0.113 nM
Kd [2]: 21.6 nM
B1: feline IgG1a mutant ID No. 324: S428Y, D312P, S434Y, D399M, T403R (antibody, part only; not given: Variable domains, not shown: another chain or arm of the molecule)
constant: ASTTAPSVFPLAPSCGTTSGATVALACLVLGYFPEPVTVSWNSGALTSGVHTFPAVLQASGLYSLSSMVTVPSSRWLSDTFTCNVAHPPSNTKVDKTVRKTDHPPGPKPCDCPKCPPPEMLGGPSIFIFPPKPKDTLSISRTPEVTCLVVDLGPDDSDVQITWFVDNTQVYTAKTSPREEQFNSTYRVVSVLPILHQPWLKGKEFKCKVNSKSLPSPIERTISKAKGQPHEPQVYVLPPAQEELSRNKVSVTCLIKSFHPPDIAVEWEITGQPEPENNYRTTPPQLMSDGRYFVYSKLSVDRSHWQRGNTYTCSVYHEALHYHHTQKSLTQSPGK

Kd [1]: 39.7 nM
Kd [2]: 16700 nM
B2: feline IgG1a mutant ID No. 291: S252Y, S428Y, Q311W, D312P, L314K (antibody, part only; not given: Variable domains, not shown: another chain or arm of the molecule; small tags and cut ends)
constant: B1 constant with S138Y, Q197W, L200K, M287D, R291T, Y322S

Kd [1]: 0.0627 nM
Kd [2]: 13.7 nM
B3: feline IgG1a mutant ID No. 326: S428Y, D312P, S434Y, P247V, S252H (antibody, part only; not given: Variable domains, not shown: another chain or arm of the molecule; small tags and cut ends)
constant: B1 constant with P133V, S138H, M287D, R291T

Kd [1]: 0.692 nM
Kd [2]: 12.8 nM
B4: feline IgG1a mutant ID No. 294: S252Y, S428Y, Q311W, L314K (antibody, part only; not given: variable domains and light chain, not shown: another chain or arm of the molecule; small tags and cut ends)
constant: B1 constant with S138Y, Q197W, P198D, L200K, M287D, R291T, Y322S

Kd [1]: 0.264 nM
Kd [2]: 21.9 nM
B5: feline IgG1a mutant ID No. 257: S428M, S434Y (antibody, part only; not given: Variable domains, not shown: another chain or arm of the molecule)
constant: B1 constant with P198D, M287D, R291T, Y316M

Kd [1]: 1.11 nM
Kd [2]: 494 nM
B6: feline IgG1a mutant ID No. 301: S428Y, Q311W, L314K, S434Y (antibody, part only; not given: Variable domains, not shown: another chain or arm of the molecule)
constant: B1 constant with Q197W, P198D, L200K, M287D, R291T

Kd [1]: 28.7 nM
Kd [2]: 14800 nM
B7: feline IgG1a mutant ID No. 276: S252R, S434R, Q311W (antibody, part only; not given: variable domains and light chain, not shown: another chain or arm of the molecule)
constant: B1 constant with S138R, Q197W, P198D, M287D, R291T, Y316S, Y322R

Kd [1]: 0.259 nM
Kd [2]: 14.6 nM
B8: feline IgG1a mutant ID No. 331: S428Y, D312P, S434Y, Q311M, L314K (antibody, part only; not given: Variable domains, not shown: another chain or arm of the molecule; small tags and cut ends)
constant: B1 constant with Q197M, L200K, M287D, R291T

Kd [1]: 0.544 nM
Kd [2]: 1480 nM
B9: feline IgG1a mutant ID No. 296: S252Y, S428Y, Q311W, S434Y (antibody, part only; not given: Variable domains, not shown: another chain or arm of the molecule; small tags and cut ends)
constant: B1 constant with S138Y, Q197W, P198D, M287D, R291T

Kd [1]: 2.87 nM
Kd [2]: 4400 nM
B10: feline IgG1a mutant ID No. 280: S252R, S434Y, Q311W (antibody, part only; not given: Variable domains, not shown: another chain or arm of the molecule)
constant: B1 constant with S138R, Q197W, P198D, M287D, R291T, Y316S

Kd [1]: 1.14 nM
Kd [2]: 300 nM
B11: feline IgG1a mutant ID No. 283: S252Y, Q311W, D312P, L314K, S434Y (antibody, part only; not given: Variable domains, not shown: another chain or arm of the molecule)
constant: B1 constant with S138Y, Q197W, L200K, M287D, R291T, Y316S

Kd [1]: 5.61 nM
Kd [2]: 17.9 nM
B12: feline IgG1a mutant ID No. 308: P247V, S252H (antibody, part only; not given: Variable domains, not shown: another chain or arm of the molecule; small tags and cut ends)
constant: B1 constant with P133V, S138H, P198D, M287D, R291T, Y316S, Y322S

Kd [1]: 0.0969 nM
Kd [2]: 6.21 nM
B13: feline IgG1a mutant ID No. 271: S252F, S434Y, Q311W (antibody, part only; not given: Variable domains, not shown: another chain or arm of the molecule)
constant: B1 constant with S138F, Q197W, P198D, M287D, R291T, Y316S

Kd [1]: 11.3 nM
Kd [2]: 1520 nM
B14: feline IgG1a mutant ID No. 269: S252F, S434R, Q311W (antibody, part only; not given: Variable domains, not shown: another chain or arm of the molecule)
constant: B1 constant with S138F, Q197W, P198D, M287D, R291T, Y316S, Y322R

Kd [1]: 2.8 nM
Kd [2]: 388 nM
B15: feline IgG1a mutant ID No. 266: Q311W, L314K, S434Y (antibody, part only; not given: Variable domains, not shown: another chain or arm of the molecule)
constant: B1 constant with Q197W, P198D, L200K, M287D, R291T, Y316S

Kd [1]: 0.182 nM
Kd [2]: 19.9 nM
B16: feline IgG1a mutant ID No. 334: S428Y, D312P, S434Y, T250Q, S252H (antibody, part only; not given: Variable domains, not shown: another chain or arm of the molecule)
constant: B1 constant with T136Q, S138H, M287D, R291T

Kd [1]: 0.633 nM
Kd [2]: 127 nM
B17: feline IgG1a mutant ID No. 287: S252Y, S428Y, D312P, L314K, S434Y (antibody, part only; not given: Variable domains, not shown: another chain or arm of the molecule)
constant: B1 constant with S138Y, L200K, M287D, R291T

Kd [1]: 0.221 nM
Kd [2]: 27.4 nM
B18: feline IgG1a mutant ID No. 327: S428Y, D312P, S434Y, P247V, T250Q (antibody, part only; not given: Variable domains, not shown: another chain or arm of the molecule; small tags and cut ends)
constant: B1 constant with P133V, T136Q, M287D, R291T

Kd [1]: 10.8 nM
Kd [2]: 12100 nM
B19: feline IgG1a mutant ID No. 279: S252R, S434Y (antibody, part only; not given: Variable domains, not shown: another chain or arm of the molecule)
constant: B1 constant with S138R, P198D, M287D, R291T, Y316S

Kd [1]: 0.0539 nM
Kd [2]: 10.2 nM
B20: feline IgG1a mutant ID No. 321: S428Y, D312P, S434Y, A431K (antibody, part only; not given: Variable domains, not shown: another chain or arm of the molecule)
constant: B1 constant with M287D, R291T, A319K

Kd [1]: 0.0418 nM
Kd [2]: 8.68 nM
B21: feline IgG1a mutant ID No. 328: S428Y, D312P, S434Y, P247V, T250Q, S252H (antibody, part only; not given: Variable domains, not shown: another chain or arm of the molecule; small tags and cut ends)
constant: B1 constant with P133V, T136Q, S138H, M287D, R291T

Kd [1]: 30 nM
Kd [2]: 119 nM
B22: feline IgG1a mutant ID No. 282: S252Y, Q311W, D312P, L314K (antibody, part only; not given: Variable domains, not shown: another chain or arm of the molecule)
constant: B1 constant with S138Y, Q197W, L200K, M287D, R291T, Y316S, Y322S

Kd [1]: 0.808 nM
Kd [2]: 132 nM
B23: feline IgG1a mutant ID No. 289: S252Y, S428Y, L314K, S434Y (antibody, part only; not given: Variable domains, not shown: another chain or arm of the molecule)
constant: B1 constant with S138Y, P198D, L200K, M287D, R291T

Kd [1]: 4.77 nM
Kd [2]: 4760 nM
B24: feline IgG1a mutant ID No. 273: S252R, S434F, Q311W (antibody, part only; not given: Variable domains, not shown: another chain or arm of the molecule)
constant: B1 constant with S138R, Q197W, P198D, M287D, R291T, Y316S, Y322F

Kd [1]: 2.35 nM
Kd [2]: 1590 nM
B25: feline IgG1a mutant ID No. 281: S252Y, D312P, L314K, S434Y (antibody, part only; not given: Variable domains, not shown: another chain or arm of the molecule)
constant: B1 constant with S138Y, L200K, M287D, R291T, Y316S

Kd [1]: 10.6 nM
Kd [2]: 8.83 nM
B26: feline IgG1a mutant ID No. 254: S428M, S434N (antibody, part only; not given: Variable domains, not shown: another chain or arm of the molecule)
constant: B1 constant with P198D, M287D, R291T, Y316M, Y322N

Kd [1]: 4.01 nM
Kd [2]: 2720 nM
B27: feline IgG1a mutant ID No. 292: S252Y, S428Y, Q311W, D312P, L314K, S434Y (antibody, part only; not given: variable domains and light chain, not shown: another chain or arm of the molecule; small tags and cut ends)
constant: B1 constant with S138Y, Q197W, L200K, M287D, R291T
